T1: Ebola Sudan (Boniface) virus glycoprotein (GP) (Ebola virus, Sudan strain (isolate …, UniProt Q66814 33-676))
T1 sequence: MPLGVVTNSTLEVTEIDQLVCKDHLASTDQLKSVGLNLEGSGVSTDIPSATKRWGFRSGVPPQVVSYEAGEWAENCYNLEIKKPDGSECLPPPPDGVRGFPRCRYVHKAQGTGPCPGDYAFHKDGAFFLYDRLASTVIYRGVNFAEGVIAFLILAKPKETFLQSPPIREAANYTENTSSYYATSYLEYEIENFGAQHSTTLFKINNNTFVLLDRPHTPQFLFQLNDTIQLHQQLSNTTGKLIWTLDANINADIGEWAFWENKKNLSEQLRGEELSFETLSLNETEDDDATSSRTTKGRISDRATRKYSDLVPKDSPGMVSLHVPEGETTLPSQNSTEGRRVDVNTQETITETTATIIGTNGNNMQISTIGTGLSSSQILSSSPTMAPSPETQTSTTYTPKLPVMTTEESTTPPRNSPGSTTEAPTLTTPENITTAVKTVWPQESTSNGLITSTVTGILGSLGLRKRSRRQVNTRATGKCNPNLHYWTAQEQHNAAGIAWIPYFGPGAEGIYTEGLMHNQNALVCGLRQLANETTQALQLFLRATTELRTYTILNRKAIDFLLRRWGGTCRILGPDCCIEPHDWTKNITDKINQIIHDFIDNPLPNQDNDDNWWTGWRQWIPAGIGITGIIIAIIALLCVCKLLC

T2: Ebola Ivory Coast virus glycoprotein (GP) (Ebola virus, Ivory Coast strain, UniProt Q66810 33-676)
T2 sequence: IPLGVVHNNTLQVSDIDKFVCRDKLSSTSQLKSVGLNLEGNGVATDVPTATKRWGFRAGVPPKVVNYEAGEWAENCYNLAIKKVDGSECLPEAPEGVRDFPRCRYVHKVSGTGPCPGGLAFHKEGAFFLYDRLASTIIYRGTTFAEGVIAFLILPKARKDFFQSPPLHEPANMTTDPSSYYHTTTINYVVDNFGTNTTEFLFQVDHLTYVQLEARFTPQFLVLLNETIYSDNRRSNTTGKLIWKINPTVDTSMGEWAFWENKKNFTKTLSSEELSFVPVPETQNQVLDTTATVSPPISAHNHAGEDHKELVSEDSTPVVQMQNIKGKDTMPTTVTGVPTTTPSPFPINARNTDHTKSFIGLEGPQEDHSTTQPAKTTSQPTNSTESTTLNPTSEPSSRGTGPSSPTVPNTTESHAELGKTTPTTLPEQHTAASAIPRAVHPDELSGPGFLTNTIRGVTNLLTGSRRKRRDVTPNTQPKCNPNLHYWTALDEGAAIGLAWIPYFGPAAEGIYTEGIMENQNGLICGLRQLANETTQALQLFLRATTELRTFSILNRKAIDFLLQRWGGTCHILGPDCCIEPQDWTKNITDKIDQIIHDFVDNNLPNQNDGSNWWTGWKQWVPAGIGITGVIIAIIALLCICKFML

T3: Ebola Zaire 1976 (Mayinga isolate) virus glycoprotein (GP) (Ebola virus, Zaire 1976 strain (isolate …, UniProt Q05320 33-676))
T3 sequence: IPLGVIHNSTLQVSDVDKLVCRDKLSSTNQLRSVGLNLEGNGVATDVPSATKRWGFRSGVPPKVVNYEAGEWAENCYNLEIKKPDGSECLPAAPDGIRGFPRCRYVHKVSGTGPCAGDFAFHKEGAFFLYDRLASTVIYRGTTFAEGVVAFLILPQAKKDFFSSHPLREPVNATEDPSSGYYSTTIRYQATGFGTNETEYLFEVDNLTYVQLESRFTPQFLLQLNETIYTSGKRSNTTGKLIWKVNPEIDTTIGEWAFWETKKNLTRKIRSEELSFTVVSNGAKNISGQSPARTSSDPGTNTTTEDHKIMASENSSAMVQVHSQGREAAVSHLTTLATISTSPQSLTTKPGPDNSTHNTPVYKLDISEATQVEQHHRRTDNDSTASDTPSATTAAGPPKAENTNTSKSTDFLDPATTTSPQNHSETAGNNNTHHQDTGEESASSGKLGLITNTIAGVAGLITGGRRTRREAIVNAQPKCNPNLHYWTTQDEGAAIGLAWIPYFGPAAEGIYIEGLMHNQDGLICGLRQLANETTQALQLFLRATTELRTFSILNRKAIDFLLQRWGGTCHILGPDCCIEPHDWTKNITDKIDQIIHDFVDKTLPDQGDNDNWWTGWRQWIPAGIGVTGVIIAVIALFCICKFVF

T4: sGP (secreted glycoprotein) from EboGP-VRP-infected cells (Ebola virus, Zaire strain, Mayinga …, UniProt P60170 33-324)
T4 sequence: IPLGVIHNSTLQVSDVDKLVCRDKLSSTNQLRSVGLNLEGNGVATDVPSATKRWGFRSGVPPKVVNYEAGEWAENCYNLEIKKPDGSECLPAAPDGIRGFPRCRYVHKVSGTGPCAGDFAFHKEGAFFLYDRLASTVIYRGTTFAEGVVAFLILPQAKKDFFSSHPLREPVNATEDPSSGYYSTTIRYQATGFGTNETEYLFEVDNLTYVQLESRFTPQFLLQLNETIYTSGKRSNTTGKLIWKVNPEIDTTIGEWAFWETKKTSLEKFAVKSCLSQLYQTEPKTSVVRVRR

B1: MAb EGP 6D8-1-2 (antibody, V domains shown)
VH: DVKLLESGGGLVQPGGSLKLSCAASGFDFSRYWMSWVRQAPGKGLEWIGEINPDSSTINYTPSLKDKFIISRDNAKNTLYLQMSKVRSEDTALYYCTRQGYGYNYWGQGTTLIVSS
VL: DVLLTQIPLSLPVSLGDQASISCRSSQSIVHSNGNTYLEWYLQKPGQSPKLLIYKASNRFSGVPDRFSGSGSGTDFTLKINRVEAEDLGVYYCLQGSHVPSTFGGGTKLEIKR
B2: MAb EGP 13F6-1-2 (antibody, V domains shown)
VH: EVQVVESGGGLVKPGGSLKLSCAASGFAFSSYDMSWVRQTPEKRLEWVAYISRGGGYTYYPDTVKGRFTISRDNAKNTLYLQMSSLKSEDTAMYYCSRHIYYGSSHYYAMDYWGQGTSVTVSS
VL: QLVLTQSSSASFSLGASAKLTCTLSRQHSTYTIEWYQQQPLKPPRYVMELKKDGSHSTGDGIPDRFSGSSSGADRYLSISNIQPEDEAIYICGVGDTIKEQFVYVFGGGTKVTVLG

Tests used:
[1] = target: T1, Ebola Sudan (Boniface) virus …; assay: ELISA on irradiated sucrose-purified virions
[2] = target: T2, Ebola Ivory Coast virus glycoprotein …; assay: ELISA on irradiated sucrose-purified virions
[3] = target: T3, Ebola Zaire 1976 (Mayinga isolate) …; assay: ELISA on virions
[4] = target: T4, sGP (secreted glycoprotein) from …; assay: radioimmunoprecipitation from infected-cell supernatants

Binder	binding result [1]	binding result [2]	binding result [3]	binding result [4]
B1	no binding	no binding	binds	no binding
B2	no binding	no binding	–	no binding
